Laboratory results from the supplement of paper PMC6757056.
± gives the standard deviation of the averaged measurements.

B1: library; a variant is named by its letters at N, in order (parent)
chain: GCUGUCACCGGUGCUUGGUACGUUAUAUUCAGCCGGUCUGAUGAGUCUNNNNNNAGACGAAACAGC

Tests used:
(6R,S)-folinic acid [1] = variants of: B1; experiment: normalized RNA/DNA level without ligand (relative to sTRSVctl = 100) (log10 (% of sTRSVctl)); HEK293T overexpressing SLC46A1; higher = less ribozyme self-cleavage, higher mRNA level; conditions: without (6R,S)-folinic acid; ligand present: no
Outline: (§1)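 Total RNA, extracted with EDTA 72 h after HEK293T cells were transfected with 4 µg per 6-well well of reporter-linked ribozyme switch library plasmids, was reverse-transcribed, amplified, barcoded and sequenced. Ligand, if used, was added 1 h before transfection. RNA level was derived from RNA reads divided by DNA reads and normalized to a spiked-in non-cleaving sequence or to the top sequences. This was multiplied by 100 and log10-transformed, with the top set of 25 sequences and a ≥100 DNA read minimum.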

(6R,S)-folinic acid [2] = variants of: B1; experiment: normalized RNA/DNA level with ligand (relative to sTRSVctl = 100) (log10 (% of sTRSVctl)); HEK293T overexpressing SLC46A1; ligand concentration (+) RNA-Seq: 6 mM; higher = less ribozyme self-cleavage, higher mRNA level; conditions: with (6R,S)-folinic acid; ligand present: yes
Outline: as §1

Row | Variant | normalized RNA/DNA level without ligand (log10) ((6R,S)-folinic acid [1]) | normalized RNA/DNA level with ligand (log10) ((6R,S)-folinic acid [2])
1 | CUACUU | 2.03 ± 0.022 | 2.02 ± 0.039
2 | GUAGUC | 2.038 ± 0.0078 | 2.03 ± 0.032
3 | GUAGUU | 2.003 ± 0.0023 | 2.02 ± 0.021
4 | GUAGUA | 1.9662 ± 0.0006 | 1.98 ± 0.025
5 | AUAGUU | 1.9853 ± 0.0008 | 2.009 ± 0.01
6 | AUAGUC | 2.056 ± 0.0045 | 2.03 ± 0.033
7 | AUAGCU | 2 ± 0.016 | 2 ± 0.046
8 | CUCCGA | 2.06 ± 0.024 | 2.01 ± 0.071
9 | CUCCGU | 2.042 ± 0.018 | 2.06 ± 0.044
10 | CUAUGG | 1.97 ± 0.03 | 2.039 ± 0.014
11 | CUAUGC | 2.036 ± 0.0043 | 2.036 ± 0.0099
12 | CUAUGA | 2.02 ± 0.013 | 2.02 ± 0.027
13 | GUCAGC | 1.979 ± 0.018 | 2.02 ± 0.033
14 | GUCAGU | 2.03 ± 0.026 | 2.04 ± 0.038
15 | GUCAGA | 2.0258 ± 0.00039 | 2.027 ± 0.01
16 | AUCACU | 2.029 ± 0.008 | 2.01 ± 0.03
17 | AUCACC | 2.057 ± 0.0026 | 2.04 ± 0.053
18 | AUCACG | 1.969 ± 0.014 | 2.01 ± 0.043
19 | GUCGGC | 2.004 ± 0.0028 | 2.03 ± 0.025
20 | GUCGGG | 1.998 ± 0.011 | 2.05 ± 0.051
21 | GUCGGU | 2.018 ± 0.0045 | 2.06 ± 0.027
22 | GUCGGA | 1.997 ± 0.0032 | 2.02 ± 0.045
23 | CUCCUA | 2.02 ± 0.023 | 2.01 ± 0.033
24 | CUCCUG | 2.07 ± 0.016 | 2.064 ± 0.014
25 | CUCCUC | 2.06 ± 0.057 | 1.99 ± 0.053
26 | CUCCUU | 2.014 ± 0.016 | 2 ± 0.027
27 | GUCGUG | 1.9677 ± 0.0013 | 2.04 ± 0.029
28 | GUCGUC | 2.02 ± 0.03 | 2.02 ± 0.034
